For the experiment, the target named is P167L Rho (E. coli, UniProt P0AG30 1-419, P167L). As to the kind of experiment: pull-down.

The source of these data is paper PMC3821671 (Bacteriophage, 2013).

B1: his-tagged WT Psu (polarity suppression protein, bacteriophage P4 capsid decorating protein) (natural protein)
chain: MESTALQQAFDTCQNNKAAWLQRKNELAAAEQEYLRLLSGEGRNVSRLDELRNIIEVRKWQVNQAAGRYIRSHEAVQHISIRDRLNDFMQQHGTALAAALAPELMGYSELTAIARNCAIQRATDALREALLSWLAKGEKINYSAQDSDILTTIGFRPDVASVDDSREKFTPAQNMIFSRKSAQLASRQSV
As to B1, the binding result is recorded as “binds”.
